Fraction ligated data for 83 variants are collected here from the supplement of paper PMC6755084.

The chains are these.
B1: minF1; the commonest letter at each place (parent)
chain: GAGACCGCAACTGAAAAGTTGTTATCAGAAATGGATGGGTTGAATTTCTGCACGTAGAAGCAAAAGGC

In the series the parent is B1. The series is described as follows: fraction ligated after 30 min (ligated reads / total reads); higher = more ligase activity. The note with it: with F1*subA RNA substrate (template-directed ligation), 42 °C. The method, boiled down: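 Templates from an oligo pool encoding minimized ligase ribozyme variants were amplified by PCR, transcribed with T7, and purified on gels. Gel electrophoresis separated ligated from unligated RNAs, which were then reverse transcribed using barcoded primers and sequenced on a MiSeq, keeping core bases with quality ≥30. For each variant, fraction ligated equals ligated reads divided by total reads.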
As to A24G G37T, the fraction ligated came to 0.00318. As for A29C A44G, the fraction ligated was determined as 0.748. Regarding A29C A44C, the fraction ligated was found to be 0.607.

For A29C A44T, the fraction ligated was 0.705. Turning to T23C A43C, the fraction ligated came out at 0.00429.

A24G G34A: the fraction ligated was 0.00498.

Take A24T A35C: the fraction ligated came out at 0.0024.

For the variant A29G T32A, the fraction ligated is 0.0412. In the case of G37C A43C, the fraction ligated is 0.00193. T25G A30G: the fraction ligated came to 0.0222.

G37C A44C: the fraction ligated amounted to 0.00161. For T25C A43G the value was 0.00741. For T25C A43C the value was 0.0068; for T23A G33T, 0.0493. As to A29G G34C, the fraction ligated is 0.00249.

Turning to A29G G34T, the fraction ligated was found to be 0.00809. Regarding G28A T36A, the fraction ligated stood at 0.0244.

As to G37T G42T, the fraction ligated was found to be 0.00146. In the case of A30C T36C, the fraction ligated is 0.0174. On to A30C T32G, for which the fraction ligated worked out at 0.019.

As for G28T A30G, the fraction ligated worked out at 0.835. As for A24T G37T, the fraction ligated was determined as 0.00399.

For C26A A43G, the fraction ligated worked out at 0.00987.

For A31C G37A, the fraction ligated was 0.0105. Under A31C G37T stands 0.0153; under A27T A44C, 0.766. A27T A44T: the fraction ligated was 0.827. Take T25G G34T: the fraction ligated amounted to 0.0038. Under T23G T36A stands 0.0286; under G34T G42A, 0.00242. In the case of G34T G42C, the fraction ligated was found to be 0.00101. Under T36C A44C stands 0.00404. Under G37T stands 0.0174; under T36C G37A, 0.00566. Take T36A A43G: the fraction ligated is 0.00353.

In the case of A27G G33C, the fraction ligated was found to be 0.35. For T23C A30T the value was 0.221; for A31T T36A, 0.0236; for G34C A43T, 0.0056.

In the case of G33A, the fraction ligated is 0.817.

On to A24T A43T, for which the fraction ligated was determined as 0.00827.

For the variant G28C A31C, the fraction ligated was 0.664. For G28C A31T the value was 0.814; for C26A A35T, 0.00429. Take A30T G33A: the fraction ligated came out at 0.747.

For T23C G37T, the fraction ligated was 0.0164.

Take G33A G34C: the fraction ligated turned out to be 0.00342.

As for A29T G33A, the fraction ligated is 0.783. G34A: the fraction ligated was 0.0464. As for A30T A35C, the fraction ligated turned out to be 0.0121. For the variant A30G G42A, the fraction ligated is 0.487. On to A30G G42C, for which the fraction ligated worked out at 0.0189. For T23A T32C, the fraction ligated was determined as 0.00262. Regarding T23A T32A, the fraction ligated came out at 0.00638. As for T32G A35G, the fraction ligated amounted to 0.00546.

With T23G A43C, the fraction ligated came out at 0.0643. For A35G G37T the value was 0.00458. On to G34T A44C, for which the fraction ligated was 0.00445. In the case of T23G A30C, the fraction ligated was 0.789.

For the variant T23G G33C, the fraction ligated stood at 0.73. For T23G G33T the value was 0.556; for T23G G33A, 0.801; for C26G T32A, 0.00367. Under A30C G34A stands 0.0885; under A24C T32A, 0.00211; under T25G G28A, 0.0158. For the variant G33A T36A, the fraction ligated was 0.0257. As for T23A C26A, the fraction ligated was 0.00635. On to T23A C26T, for which the fraction ligated came to 0.0201. For T25A T32G, the fraction ligated turned out to be 0.00199. Take T36A G37A: the fraction ligated amounted to 0.00486. On to T36A G37T, for which the fraction ligated was 0.0153. Turning to T25G T32G, the fraction ligated amounted to 0.00886.

On to A27C A44C, for which the fraction ligated was found to be 0.244. For T23A A29T the value was 0.156. For T25G A31C the value was 0.0154; for G28A A44G, 0.753. In the case of A24C G37T, the fraction ligated came out at 0.00693. For the variant T25G C26A, the fraction ligated amounted to 0.00653.

T25G C26G: the fraction ligated turned out to be 0.00725. On to A30G A43G, for which the fraction ligated was 0.14. As for A30G A43T, the fraction ligated came to 0.188.

Turning to T32G G33A, the fraction ligated amounted to 0.0116.
